From publication PMC3597684
Substitutions are numbered along the chain they refer to.

T1: ParBPput-R194A (ParBPput-G291-R194A) (Pseudomonas putida, UniProt P0A152 1-290, R194A)
T1 sequence: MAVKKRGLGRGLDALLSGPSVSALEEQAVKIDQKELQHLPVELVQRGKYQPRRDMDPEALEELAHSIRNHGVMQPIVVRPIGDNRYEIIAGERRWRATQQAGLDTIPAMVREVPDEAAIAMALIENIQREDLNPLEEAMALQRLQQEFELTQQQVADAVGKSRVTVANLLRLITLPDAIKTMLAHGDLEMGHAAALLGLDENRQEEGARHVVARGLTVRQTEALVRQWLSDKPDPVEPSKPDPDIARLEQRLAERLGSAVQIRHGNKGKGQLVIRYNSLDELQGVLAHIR

T2: SopB-R219K (plasmid F (Escherichia coli), UniProt P62558 1-323, R219K)
T2 sequence: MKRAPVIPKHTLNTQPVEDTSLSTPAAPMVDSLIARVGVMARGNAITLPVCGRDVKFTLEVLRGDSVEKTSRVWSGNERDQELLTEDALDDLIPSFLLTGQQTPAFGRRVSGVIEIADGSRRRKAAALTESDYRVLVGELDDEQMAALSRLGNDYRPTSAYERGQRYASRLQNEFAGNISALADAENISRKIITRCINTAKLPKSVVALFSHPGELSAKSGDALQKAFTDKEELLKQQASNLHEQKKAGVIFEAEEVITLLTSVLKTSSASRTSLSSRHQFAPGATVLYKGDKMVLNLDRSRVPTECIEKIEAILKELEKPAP

T3: SopB-R219A (plasmid F (Escherichia coli), UniProt P62558 1-323, R219A)
T3 sequence: T2 sequence with K219A

T4: SopB (SopB-G324) (plasmid F (Escherichia coli), UniProt P62558 1-323)
T4 sequence: T2 sequence with K219R

B1: parS66 (Pput parS; assignment from listing order) (dsDNA)
DNA 1: ATTAGTCTGTTCCACGTGGAACACTCGTAT
DNA 2: ATACGAGTGTTCCACGTGGAACAGACTAAT
B2: sopC2 (dsDNA)
DNA 1: ATTAGTCTGGGACCACGGTCCCACTCGTAT
DNA 2: ATACGAGTGGGACCGTGGTCCCAGACTAAT

Legend:
Assay in all cases: EMSA
[1] = target: T1, ParBPput-R194A (ParBPput-G291-R194A)
SopB-R219K = target: T2, SopB-R219K
SopB-R219A = target: T3, SopB-R219A
SopB (SopB-G324) = target: T4, SopB (SopB-G324)

Binder | binding result [1] | binding signal (SopB-R219K) | binding signal (SopB-R219A) | binding result (SopB (SopB-G324))
B1 | no binding |  |  | 
B2 |  | ~100 fold loss vs wild-type SopB | > 200 fold loss vs wild-type SopB | binds
